Experimental data reported in patent US20210246166A1 (Bayer, published 2021).
Numbered stars: 1 amine (or outer) side, 2 acyl side, 3 side chain; on linkers, the order of the positions; unused ones are H or OH. Bridge positions count the residues as written; N and C are the ends. Square brackets hold non-standard residues; d marks the D form. Ends that are not written are not given here. (S)‑4‑Piperazine‑2‑carboxylic acid = (S)-4-piperazine-2-carboxylic acid; 4‑Aminomethylphenylacetic acid = O=C(Cc1ccc(CN[*:1])cc1)[*:2]; NHCH2(1,3-C6H4)CH2CO = O=C(Cc1cccc(CN[*:1])c1)[*:2]; Phe(3-COOH) = N[C@@H](Cc1cccc(C(=O)O)c1)C(=O)O; Oic = O=C(O)[C@@H]1C[C@@H]2CCCC[C@@H]2N1; PEG6 = NCCOCCOCCOCCOCCOCCOCCC(=O)O; tBuAla = CC(C)(C)C[C@H](N)C(=O)O; PEG4 = NCCOCCOCCOCCOCCC(=O)O; Pen = CC(C)(S)[C@H](N)C(=O)O; PEG3 = NCCOCCOCCOCCC(=O)O; Orn = NCCC[C@H](N)C(=O)O; dβPro = D-beta-Proline; Sar = CNCC(=O)O

T1: recombinant rat MASP1 active protease (amino acids 302-704, C-terminal His Tag) (rat, UniProt Q8CHN8 302-704)
T1 sequence: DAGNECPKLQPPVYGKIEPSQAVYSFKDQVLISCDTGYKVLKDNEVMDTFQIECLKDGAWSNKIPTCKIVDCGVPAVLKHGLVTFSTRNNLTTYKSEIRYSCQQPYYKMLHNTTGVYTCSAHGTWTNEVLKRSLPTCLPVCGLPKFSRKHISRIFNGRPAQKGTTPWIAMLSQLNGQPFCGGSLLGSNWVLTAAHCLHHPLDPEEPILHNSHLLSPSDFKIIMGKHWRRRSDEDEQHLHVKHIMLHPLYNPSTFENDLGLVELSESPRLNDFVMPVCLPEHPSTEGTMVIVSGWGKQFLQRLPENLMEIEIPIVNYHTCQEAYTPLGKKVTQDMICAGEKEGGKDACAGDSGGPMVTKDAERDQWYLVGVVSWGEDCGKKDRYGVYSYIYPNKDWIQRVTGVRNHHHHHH

B1: Example 469: (Orn)-IC+SRSLP-(Oic)-I-(Pen)+IPD-OH (peptide)
peptide: [Orn]ICSRSLP[Oic]I[Pen]IPD-OH
modifications: disulfide 3-11; N-terminus assumed
SMILES: CC[C@H](C)[C@H](NC(=O)[C@@H](N)CCCN)C(=O)N[C@H]1CSSC(C)(C)[C@@H](C(=O)N[C@H](C(=O)N2CCC[C@H]2C(=O)N[C@@H](CC(=O)O)C(=O)O)[C@@H](C)CC)NC(=O)[C@H]([C@@H](C)CC)NC(=O)[C@@H]2C[C@@H]3CCCC[C@@H]3N2C(=O)[C@@H]2CCCN2C(=O)[C@H](CC(C)C)NC(=O)[C@H](CO)NC(=O)[C@H](CCCNC(=N)N)NC(=O)[C@H](CO)NC1=O
B2: Example 472: ((N-Me)G)-IC+SRSLP-(Oic)-I-(Pen)+IP-(PEG5(22 atoms))-OH (peptide)
peptide: [Sar]ICSRSLP[Oic]I[Pen]IP[PEG6]-OH
modifications: disulfide 3-11; N-terminus assumed
SMILES: CC[C@H](C)[C@H](NC(=O)CNC)C(=O)N[C@H]1CSSC(C)(C)[C@@H](C(=O)N[C@H](C(=O)N2CCC[C@H]2C(=O)NCCOCCOCCOCCOCCOCCOCCC(=O)O)[C@@H](C)CC)NC(=O)[C@H]([C@@H](C)CC)NC(=O)[C@@H]2C[C@@H]3CCCC[C@@H]3N2C(=O)[C@@H]2CCCN2C(=O)[C@H](CC(C)C)NC(=O)[C@H](CO)NC(=O)[C@H](CCCNC(=N)N)NC(=O)[C@H](CO)NC1=O
B3: Example 476: ((N-Me)G)-IC+SRSLP-(Oic)-I-(Pen)+IP-(4-Aminomethylphenylacetic acid)-OH (peptide)
peptide: [Sar]ICSRSLP[Oic]I[Pen]IP[4‑Aminomethylphenylacetic acid]-OH
modifications: disulfide 3-11; N-terminus assumed
SMILES: CC[C@H](C)[C@H](NC(=O)CNC)C(=O)N[C@H]1CSSC(C)(C)[C@@H](C(=O)N[C@H](C(=O)N2CCC[C@H]2C(=O)NCc2ccc(CC(=O)O)cc2)[C@@H](C)CC)NC(=O)[C@H]([C@@H](C)CC)NC(=O)[C@@H]2C[C@@H]3CCCC[C@@H]3N2C(=O)[C@@H]2CCCN2C(=O)[C@H](CC(C)C)NC(=O)[C@H](CO)NC(=O)[C@H](CCCNC(=N)N)NC(=O)[C@H](CO)NC1=O
B4: Example 477: ((N-Me)G)-IC+SRSLP-(Oic)-I-(Pen)+IP-(3-Aminomethylphenylacetic acid)-OH (peptide)
peptide: [Sar]ICSRSLP[Oic]I[Pen]IP[NHCH2(1,3-C6H4)CH2CO]-OH
modifications: disulfide 3-11; N-terminus assumed
SMILES: CC[C@H](C)[C@H](NC(=O)CNC)C(=O)N[C@H]1CSSC(C)(C)[C@@H](C(=O)N[C@H](C(=O)N2CCC[C@H]2C(=O)NCc2cccc(CC(=O)O)c2)[C@@H](C)CC)NC(=O)[C@H]([C@@H](C)CC)NC(=O)[C@@H]2C[C@@H]3CCCC[C@@H]3N2C(=O)[C@@H]2CCCN2C(=O)[C@H](CC(C)C)NC(=O)[C@H](CO)NC(=O)[C@H](CCCNC(=N)N)NC(=O)[C@H](CO)NC1=O
B5: Example 478: aIC+SRSLP-(Oic)-I-(Pen)-+IP-(3-Aminomethylphenylacetic acid)-OH (peptide)
peptide: [dA]ICSRSLP[Oic]I[Pen]IP[NHCH2(1,3-C6H4)CH2CO]-OH
modifications: disulfide 3-11; N-terminus assumed
SMILES: CC[C@H](C)[C@H](NC(=O)[C@@H](C)N)C(=O)N[C@H]1CSSC(C)(C)[C@@H](C(=O)N[C@H](C(=O)N2CCC[C@H]2C(=O)NCc2cccc(CC(=O)O)c2)[C@@H](C)CC)NC(=O)[C@H]([C@@H](C)CC)NC(=O)[C@@H]2C[C@@H]3CCCC[C@@H]3N2C(=O)[C@@H]2CCCN2C(=O)[C@H](CC(C)C)NC(=O)[C@H](CO)NC(=O)[C@H](CCCNC(=N)N)NC(=O)[C@H](CO)NC1=O
B6: Example 480: (beta-P)-IC+SRS-((tBu)A)-PPI-(Pen)+IPD-OH (peptide)
peptide: XICSRS[tBuAla]PPI[Pen]IPD-OH
modifications: disulfide 3-11; not fully specified (residue 1); printed as (beta-P)-IC + SRS-((tBu)A)-PPI-(Pen) + IPD-OH
B7: Example 482: ((N-Me)G)-IC+SRS-((tBu)A)-PPI-(Pen)+IP-((3-Carboxy)F)-OH (peptide)
peptide: [Sar]ICSRS[tBuAla]PPI[Pen]IP[Phe(3-COOH)]-OH
modifications: disulfide 3-11; N-terminus assumed
SMILES: CC[C@H](C)[C@H](NC(=O)CNC)C(=O)N[C@H]1CSSC(C)(C)[C@@H](C(=O)N[C@H](C(=O)N2CCC[C@H]2C(=O)N[C@@H](Cc2cccc(C(=O)O)c2)C(=O)O)[C@@H](C)CC)NC(=O)[C@H]([C@@H](C)CC)NC(=O)[C@@H]2CCCN2C(=O)[C@@H]2CCCN2C(=O)[C@H](CC(C)(C)C)NC(=O)[C@H](CO)NC(=O)[C@H](CCCNC(=N)N)NC(=O)[C@H](CO)NC1=O
B8: Example 483: ((N-Me)G)-IC+SRSLP-(Oic)-I-(Pen)+IP-((3-Carboxy)F)-OH (peptide)
peptide: [Sar]ICSRSLP[Oic]I[Pen]IP[Phe(3-COOH)]-OH
modifications: disulfide 3-11; N-terminus assumed
SMILES: CC[C@H](C)[C@H](NC(=O)CNC)C(=O)N[C@H]1CSSC(C)(C)[C@@H](C(=O)N[C@H](C(=O)N2CCC[C@H]2C(=O)N[C@@H](Cc2cccc(C(=O)O)c2)C(=O)O)[C@@H](C)CC)NC(=O)[C@H]([C@@H](C)CC)NC(=O)[C@@H]2C[C@@H]3CCCC[C@@H]3N2C(=O)[C@@H]2CCCN2C(=O)[C@H](CC(C)C)NC(=O)[C@H](CO)NC(=O)[C@H](CCCNC(=N)N)NC(=O)[C@H](CO)NC1=O
B9: Example 484: ((N-Me)G)-IC+SRSLP-(Oic)-I-(Pen)+IPD-(PEG2(13 atoms))-OH (peptide)
peptide: [Sar]ICSRSLP[Oic]I[Pen]IPD[PEG3]-OH
modifications: disulfide 3-11; N-terminus assumed
SMILES: CC[C@H](C)[C@H](NC(=O)CNC)C(=O)N[C@H]1CSSC(C)(C)[C@@H](C(=O)N[C@H](C(=O)N2CCC[C@H]2C(=O)N[C@@H](CC(=O)O)C(=O)NCCOCCOCCOCCC(=O)O)[C@@H](C)CC)NC(=O)[C@H]([C@@H](C)CC)NC(=O)[C@@H]2C[C@@H]3CCCC[C@@H]3N2C(=O)[C@@H]2CCCN2C(=O)[C@H](CC(C)C)NC(=O)[C@H](CO)NC(=O)[C@H](CCCNC(=N)N)NC(=O)[C@H](CO)NC1=O
B10: Example 485: ((N-Me)G)-IC+SRS-((tBu)A)-PPI-(Pen)+IP-(PEG3(16atoms))-OH (peptide)
peptide: [Sar]ICSRS[tBuAla]PPI[Pen]IP[PEG4]-OH
modifications: disulfide 3-11; N-terminus assumed
SMILES: CC[C@H](C)[C@H](NC(=O)CNC)C(=O)N[C@H]1CSSC(C)(C)[C@@H](C(=O)N[C@H](C(=O)N2CCC[C@H]2C(=O)NCCOCCOCCOCCOCCC(=O)O)[C@@H](C)CC)NC(=O)[C@H]([C@@H](C)CC)NC(=O)[C@@H]2CCCN2C(=O)[C@@H]2CCCN2C(=O)[C@H](CC(C)(C)C)NC(=O)[C@H](CO)NC(=O)[C@H](CCCNC(=N)N)NC(=O)[C@H](CO)NC1=O
B11: Example 486: ((N-Me)G)-IC+SRS-((tBu)A)-PPI-(Pen)+IP-(Orn)-D-OH (peptide)
peptide: [Sar]ICSRS[tBuAla]PPI[Pen]IP[Orn]D-OH
modifications: disulfide 3-11; N-terminus assumed
SMILES: CC[C@H](C)[C@H](NC(=O)CNC)C(=O)N[C@H]1CSSC(C)(C)[C@@H](C(=O)N[C@H](C(=O)N2CCC[C@H]2C(=O)N[C@@H](CCCN)C(=O)N[C@@H](CC(=O)O)C(=O)O)[C@@H](C)CC)NC(=O)[C@H]([C@@H](C)CC)NC(=O)[C@@H]2CCCN2C(=O)[C@@H]2CCCN2C(=O)[C@H](CC(C)(C)C)NC(=O)[C@H](CO)NC(=O)[C@H](CCCNC(=N)N)NC(=O)[C@H](CO)NC1=O
B12: Example 487: ((N-Me)G)-IC+SRSLP-(Oic)-I-(Pen)+IPR-OH (peptide)
peptide: [Sar]ICSRSLP[Oic]I[Pen]IPR-OH
modifications: disulfide 3-11; N-terminus assumed
SMILES: CC[C@H](C)[C@H](NC(=O)CNC)C(=O)N[C@H]1CSSC(C)(C)[C@@H](C(=O)N[C@H](C(=O)N2CCC[C@H]2C(=O)N[C@@H](CCCNC(=N)N)C(=O)O)[C@@H](C)CC)NC(=O)[C@H]([C@@H](C)CC)NC(=O)[C@@H]2C[C@@H]3CCCC[C@@H]3N2C(=O)[C@@H]2CCCN2C(=O)[C@H](CC(C)C)NC(=O)[C@H](CO)NC(=O)[C@H](CCCNC(=N)N)NC(=O)[C@H](CO)NC1=O

Tests used:
[1] = target: recombinant rat MASP2 active protease (amino acids 296-685, C-terminal His Tag) (rat, UniProt Q9JJS8 296-685); test: cell-based or functional assay
[2] = target: T1, recombinant rat MASP1 active protease …; test: cell-based or functional assay

Chain of recombinant rat MASP2 active protease (amino acids 296-685, C-terminal His Tag) (Q9JJS8 other isoform, or with tags, fused parts or gaps limits assumed): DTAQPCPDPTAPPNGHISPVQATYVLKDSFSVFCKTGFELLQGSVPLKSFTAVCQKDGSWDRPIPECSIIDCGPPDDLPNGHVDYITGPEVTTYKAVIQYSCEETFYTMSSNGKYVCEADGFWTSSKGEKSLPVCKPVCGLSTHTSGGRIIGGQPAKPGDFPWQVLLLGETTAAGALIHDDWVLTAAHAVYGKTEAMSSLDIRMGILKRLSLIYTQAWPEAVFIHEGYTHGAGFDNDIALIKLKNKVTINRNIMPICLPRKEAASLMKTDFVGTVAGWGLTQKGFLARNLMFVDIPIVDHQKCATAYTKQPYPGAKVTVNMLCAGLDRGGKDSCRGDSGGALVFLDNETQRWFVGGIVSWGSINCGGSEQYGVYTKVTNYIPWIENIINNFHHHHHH

Binder | rat MASP2 IC50 [1] [nM] | rat MASP1 IC50 [2] [nM]
B1 | 34 | 120
[Sar]ICSRSLP[Oic]I[Pen]IP[PEG4‑CH2CO2H(15atoms)]-OH (disulfide 3-11) [Example 470: ((N-Me)G)-IC+SRSLP-(Oic)-I-(Pen)+IP-(PEG4-CH2CO2H (15 atoms))-OH] | 54 | 100
[Sar]ICSRSLP[Oic]I[Pen]IPD[PEG4‑CH2CO2H(15atoms)]-OH (disulfide 3-11) [Example 471: ((N-Me)G)-IC+SRSLP-(Oic)-I-(Pen)+IPD-(PEG4-CH2CO2H (15 atoms))-OH] | 71 | 78
B2 | 49 | 100
[Sar]ICSRSLP[Oic]I[Pen]I[(S)‑4‑Piperazine‑2‑carboxylic acid]-OH (disulfide 3-11) [Example 474: ((N-Me))-GIC+SRSLP-(Oic)-I-(Pen)+I-((S)-4-Piperazine-2-carboxylic acid)-OH] | 26 | 87
[Piperidin‑4‑ylacetic acid]ICSRS[tBuAla]PPICIPD-OH (disulfide 3-11) [Example 475: (Piperidin-4-ylacetic acid)-IC+SRS-((tBu)A)-PPIC+IPD-OH] | 25 | 250
B3 | 61 | 53
B4 | 123 | 154
B5 | 49 | 68
B6 | 41 | 24
[dβPro]ICSRS[tBuAla]PPI[Pen]IPD-OH (disulfide 3-11) [Example 481: (beta-p)-IC+SRS-((tBu)A)-PPI-(Pen)+IPD-OH] | 36 | 20
B7 | 33 | 18
B8 | 50 | 34
B9 | 88 | 63
B10 | 32 | 36
B11 | 68 | 69
B12 | 38 | 67
[(R)‑Piperidine‑3‑Carboxylic Acid]ICSRSLP[Oic]I[Pen]IPD-OH (disulfide 3-11) [Example 488: ((R)-Piperidine-3-Carboxylic Acid)-IC+SRSLP-(Oic)-I-(Pen)+IPD-OH] | 36 | 41
